Assay results from patent publication US20250320293A1 (REGENECORE BIOTECH, published 2025).
Changes are numbered by the printed parent chain.

T1: recombinant human TREM2 protein (amino acids 19 to 174) (human, UniProt Q9NZC2 19-174)
T1 chain: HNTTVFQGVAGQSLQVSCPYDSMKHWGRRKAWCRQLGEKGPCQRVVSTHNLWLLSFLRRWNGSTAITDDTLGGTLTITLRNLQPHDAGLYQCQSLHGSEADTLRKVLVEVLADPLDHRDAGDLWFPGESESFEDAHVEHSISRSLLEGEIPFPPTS

T2: recombinant human TREM2 protein (amino acids 19 to 174) (human, UniProt Q9NZC2 19-174)
T2 construct: range 19-174
T2 sequence (looked up): T1 chain

B1: 12G12W-hFC1 (Fc fusion antibody of single-domain antibody 12G12W) (Fc fusion)
chain (part 1 of 2): ESGGGLVQAGESLRLSCAASGRTFTNYAMGWFRQAPGKEREFVAGVSWSGSSTDYADSVKGRFTISTDNAKNTVYLQMTSLKPEDTAVYICGVKYFGHSRGGYDYWGQGTQVTVSS
B2: Fc fusion antibody of single-domain antibody 2B5 (Fc fusion)
chain: ESGGGLVQPGGSLRLSCAASGFAFSNYVMHWYRQAPEKERELVALIGSQGGAYTNYAGSVKGRFTISRDNTKNMVYLQMNNLKPEDTAVYYCNVVYNGRPNWGQGTQVTVSS
notes: also called VHH-hFc; not shown: human IgG1 (vector RJK-V4-hFC1) or IgG4 (vector RJK-V4-3) hinge, CH2, CH3 with 6xHis tag; which of the two is told only
B3: Fc fusion antibody of single-domain antibody 1H1 (Fc fusion)
chain: ESGGGLVQPGGSLRLSCAASGRTFSSYVMGWFRQAPGKEREFVAAISWSGGITYYGDSVKGRFTISRDNAKNTVFLQMNSLKPEDTAVYYCASGSGSYYRGWEYDYWGQGTQVTVSS
notes: as for B2
B4: single-domain antibody 12G10 (VHH)
VHH: B2 chain with L45I, G58A, T71A, N97I
notes: Crude extract from E. coli (pMECS vector), detected through an HA tag
B5: single-domain antibody 2B5 (VHH)
VHH: B2 chain
notes: as for B4
B6: single-domain antibody 10F10 (VHH)
VHH: B2 chain with S25G, L45I, A52T, G58D, T71A, N97I
notes: as for B4
B7: single-domain antibody 12G12W (VHH)
VHH: B1 chain (part 1 of 2)
notes: as for B4
B8: single-domain antibody 11D3 (VHH)
VHH: B1 chain (part 1 of 2) with N26D
notes: as for B4
B9: single-domain antibody 10B3 (VHH)
VHH: B1 chain (part 1 of 2) with M78I, T79N, S80N
notes: as for B4
B10: single-domain antibody 1H1 (VHH)
VHH: B3 chain
notes: as for B4
B11: single-domain antibody 10E12 (VHH)
VHH: ESGGGLVQPGGSLRLSCAASGFTFSGYYMSWVRQVPGKARELVAGITRGGNTYYADSVKGRFTISRDNAKNTVYLQMNNLKPEDTTVYYCNARRATTYYWGQGTQVTVSS
notes: as for B4
B12: single-domain antibody 11H2 (VHH)
VHH: B11 VHH with F22L, G26E
notes: as for B4
B13: Fc fusion antibody of single-domain antibody 12G10 (Fc fusion)
chain: B2 chain with L45I, G58A, T71A, N97I
notes: as for B2
B14: Fc fusion antibody of single-domain antibody 10F10 (Fc fusion)
chain: B2 chain with S25G, L45I, A52T, G58D, T71A, N97I
notes: as for B2
B15: Fc fusion antibody of single-domain antibody 11D3 (Fc fusion)
chain: B1 chain (part 1 of 2) with N26D
notes: as for B2
B16: Fc fusion antibody of single-domain antibody 10B3 (Fc fusion)
chain: B1 chain (part 1 of 2) with M78I, T79N, S80N
notes: as for B2
B17: Fc fusion antibody of single-domain antibody 10E12 (Fc fusion)
chain: B11 VHH
notes: as for B2
B18: 11H2-hFC4 (Fc fusion antibody of single-domain antibody 11H2) (Fc fusion)
chain (part 1 of 2): B11 VHH with F22L, G26E

Molecular target: T1, recombinant human TREM2 protein (amino …)
Experiment: ELISA

Row | EC50 | Binder
1 | 254 pM | B1

Molecular target: T1, recombinant human TREM2 protein (amino …)
Experiment: ELISA
Remark: another data set of the same source

Row | EC50 | Binder
2 | 201 pM | B2
3 | 380 pM | B3

Molecular target: T2, recombinant human TREM2 protein (amino …)
Experiment: ELISA, crude VHH extract on coated TREM2, anti-HA-HRP; positive if OD450 more than five times the control
Method: Crude antibodies were obtained by osmotic bursting. The TREM2 recombinant proteins were diluted in 100 mM NaHCO₃ of pH 8.3, respectively. An ELISA plate was then coated with 100 μg of the proteins and left at 4° C. overnight. 100 μL of the obtained crude antibody extract was transferred to the ELISA plate into which the antigen was added. The plate was incubated at room temperature for 1 h. The unbound antibody was washed away with phosphate buffered saline with Tween (PBST), and 100 μL of Mouse Anti-HA tag Antibody (HRP) (mouse anti-HA horseradish peroxidase-labeled antibody, Thermo Fisher) at 1:2000 dilution was added and incubated at room temperature for 1 h. The unbound antibody was washed away with PBST, and a horseradish peroxidase color development solution was added. After react at 37° C. for 15 min, a stopping solution was added. The absorbance value was read at the wavelength of 450 nm on a microplate reader.
When an optical density (OD) value of a sample well is more than five times greater than that of the control well, the sample well is identified as a positive clone well. The bacteria in the positive clone well were transferred to an LB medium containing 100 μg/mL ampicillin under shaking for plasmid extraction and sequencing.

Row | binding result | Binder
4 | binds | B4
5 | binds | B5
6 | binds | B6
7 | binds | B7
8 | binds | B8
9 | binds | B9
10 | binds | B10
11 | binds | B11
12 | binds | B12

Molecular target: T2, recombinant human TREM2 protein (amino …)
Experiment: ELISA, VHH-hFc titrated on coated TREM2 (1 ug/mL), HRP-goat anti-hIgG

Row | binding result | Binder
13 | binds | B13
14 | binds | B14
15 | binds | B2
16 | binds | B15
17 | binds | B16
18 | binds | B3
19 | binds | B17

Molecular target: T1, recombinant human TREM2 protein (amino …)
Experiment: ELISA
Remark: another data set of the same source

Row | EC50 | Binder
20 | 265 pM | B14
21 | 242 pM | B16
22 | 293 pM | B17

Molecular target: T1, recombinant human TREM2 protein (amino …)
Experiment: ELISA
Remark: another data set of the same source

Row | EC50 | Binder
23 | 300 pM | B13
24 | 337 pM | B15
25 | 330 pM | B18
